Test results: patent publication US20250064890A1, “PROTEIN COMPOSITIONS FOR THE TREATMENT OF INFLAMMATORY DISEASES” (Unichem Laboratories Limited, priority 2021, published 2025)

What was measured:
[1] = system: 5-Fluorouracil induced OM; experiment: Histopathology score of cheek pouch, 5-FU induced OM in hamsters; format: in vivo, golden Syrian hamsters; conditions: for Histopathology score, Mean: scale 1-5
Method: To induce OM, animals were administered (except normal control) 5-Fluorouracil (5-FU) by intraperitoneal route at doses of 60 mg/kg & 40 mg/kg respectively on first two days. On Day 4, under anesthesia, with aim of enhancing OM, mechanical irritation of the oral mucosa were done using wire brush. Treatment was initiated from Day 4 to Day 12. For group 3 animals 100 μl of vehicle comprising of standard drug Dexamethasone at 0.1 mg was instilled in buccal cheek pouch. For group 4, 5 and 6 animals 100 μl of vehicle comprising of SEQ ID NO. 2 at 0.25 mg, 0.5 mg & 1 mg, respectively was instilled in buccal cheek pouch. At the end of treatment period, cheek pouch of the hamsters was exposed, Mucositis scoring was carried out and images were captured. The animals were then humanely sacrificed, cheek pouch/jugular mucosa were isolated and used for biomarker estimation and histopathological investigation by using ELISA method and Hematoxylin and Eosin (H&E) staining, respectively.
For histopathology the oral mucosa tissues were sectioned 5 μm thickness and stained with hematoxylin-eosin staining. For study histopathological the sections were analyzed by light microscopy.
The pouch/jugular mucosa were observed and scored for infiltration of inflammatory cells, vasodilatation, presence of hemorrhagic areas, edema, ulcerations, and abscesses.

TNF-α [2] = experiment: Multiplex analysis, chemotherapy (5-FU), TR146; format: cell-based, human; conditions: for TNF-α against chemotherapy induced levels: 5-FU, in words
Method: (§1) Oral buccal mucosal cells (TR146) cells were incubated overnight at 37° C. in 5% CO2 incubator. […] The cells were then stimulated with 5-FU (10 mM) for another 24h for chemotherapy and with gamma radiation (3.5 kGy) using Cobalt 60 for radiotherapy. After 24 h, cell culture supernatants were collected from each well and stored at −20° C. till multiplex analysis. For NF-kB estimations, cell lysates were prepared. Levels of biomarkers were estimated using Magpix® multiplex machine. The cells treated with Amifostine (along with 5-FU or radiation) were considered as positive control (PC). Untreated cells (5-FU or radiation alone treated) were used as negative control (NC).
(§2) The percent modulation in each sample was determined as follows:
(§3) [{Concentration of biomarkers (pg/ml) in Control cells (5-FU or radiation alone treated)−Concentration of biomarkers (pg/ml) in SEQ ID NO: 2+5-FU or radiation treated cells)}/Concentration of biomarkers (pg/ml) in Control cells (5-FU or radiation alone treated)]*100

IL-12/IL-23p40 = experiment: Multiplex analysis, chemotherapy (5-FU), TR146; format: cell-based, human; conditions: for IL-12/IL-23p40 against chemotherapy induced levels: 5-FU, in words
Method: as §1, §2, §3

VEGF [3] = experiment: Multiplex analysis, chemotherapy (5-FU), TR146; format: cell-based, human; conditions: for VEGF against chemotherapy induced levels: 5-FU, in words
Method: as §1, §2, §3

MMP-3 [4] = experiment: Multiplex analysis, chemotherapy (5-FU), TR146; format: cell-based, human; conditions: for MMP-3 against chemotherapy induced levels: 5-FU, in words
Method: as §1, §2, §3

IL-6 [5] = experiment: Multiplex analysis, chemotherapy (5-FU), TR146; format: cell-based, human; conditions: for IL-6 against chemotherapy induced levels: 5-FU, in words
Method: as §1, §2, §3

IL-1β [6] = experiment: Multiplex analysis, chemotherapy (5-FU), TR146; format: cell-based, human; conditions: for IL-1-β against chemotherapy induced levels: 5-FU, in words
Method: as §1, §2, §3

NF-kB = experiment: Multiplex analysis, radiotherapy, TR146 cell lysates; format: cell-based, human
Method: as §1, §2, §3

TNF-α [7] = experiment: Multiplex analysis, radiotherapy, TR146; format: cell-based, human
Method: as §1, §2, §3

VEGF [8] = experiment: Multiplex analysis, radiotherapy, TR146; format: cell-based, human
Method: as §1, §2, §3

RAGE = experiment: Multiplex analysis, radiotherapy, TR146; format: cell-based, human
Method: as §1, §2, §3

MMP-8 = experiment: Multiplex analysis, radiotherapy, TR146; format: cell-based, human
Method: as §1, §2, §3

MMP-3 [9] = experiment: Multiplex analysis, radiotherapy, TR146; format: cell-based, human
Method: as §1, §2, §3

IL-6 [10] = experiment: Multiplex analysis, radiotherapy, TR146; format: cell-based, human
Method: as §1, §2, §3

IL-1β [11] = experiment: Multiplex analysis, radiotherapy, TR146; format: cell-based, human
Method: as §1, §2, §3

[12] = 0.01 μg/ml + Radiation (3.5 kGy)
[13] = 0.1 μg/ml + Radiation (3.5 kGy)

B1: SEQ ID NO 2: recombinant lectin, variant of the S. rolfsii lectin amino acid sequence (reported as Rec-2 in WO 2010/095143) (protein)
chain: TYKITVRVYQTNPDAFFHPVEKTVWKYANGGTWTITDDQHVLTMGGSGTSGTLRFHADNGESFTATFGVHNYKRWCDIVTNLAADETGMVINQQYYSQKNREEARERQLSNYQVKNAKGRNFQIVYTEAEGNDLHANLIIG
Histopathology score, Mean ([1]; G4, 0.25 mg/Animal): 3
Histopathology score, Mean ([1]; G5, 0.5 mg/Animal): 2
Histopathology score, Mean ([1]; G6, 1 mg/Animal): 2.8
histology score as compared to the untreated subjects ([1]; hamsters suffering from OM, in words): reduction
Percentage Inhibition TNF-α (TNF-α [2]; 0.1 μg/ml + 5-FU (10 mM)): 13.3%
Percentage Inhibition TNF-α (TNF-α [2]; 10 μg/ml + 5-FU (10 mM)): 10%
Percentage Inhibition TNF-α (TNF-α [2]; 25 μg/ml + 5-FU (10 mM)): 10%
Percentage Inhibition TNF-α (TNF-α [2]; 50 μg/ml + 5-FU (10 mM)): 13.3%
Percentage Inhibition TNF-α (TNF-α [2]; 100 μg/ml + 5-FU (10 mM)): 6.6%
TNF-α against chemotherapy induced levels (TNF-α [2]): lowering of levels
TNF-α against chemotherapy induced levels (TNF-α [2]; listed as test items): downregulation
Percentage Inhibition IL-12/IL-23p40 (IL-12/IL-23p40; 0.1 μg/ml + 5-FU (10 mM)): 13.5%
Percentage Inhibition IL-12/IL-23p40 (IL-12/IL-23p40; 10 μg/ml + 5-FU (10 mM)): 33.8%
Percentage Inhibition IL-12/IL-23p40 (IL-12/IL-23p40; 25 μg/ml + 5-FU (10 mM)): 36.8%
Percentage Inhibition IL-12/IL-23p40 (IL-12/IL-23p40; 50 μg/ml + 5-FU (10 mM)): 42.6%
Percentage Inhibition IL-12/IL-23p40 (IL-12/IL-23p40; 100 μg/ml + 5-FU (10 mM)): 36.6%
IL-12/IL-23p40 against chemotherapy induced levels (IL-12/IL-23p40): lowering of levels
IL-12/IL-23p40 against chemotherapy induced levels (IL-12/IL-23p40; listed as test items): downregulation
Percentage Inhibition VGEF (VEGF [3]; 0.1 μg/ml + 5-FU (10 mM)): 25%
Percentage Inhibition VGEF (VEGF [3]; 10 μg/ml + 5-FU (10 mM)): 24.4%
Percentage Inhibition VGEF (VEGF [3]; 25 μg/ml + 5-FU (10 mM)): 28%
Percentage Inhibition VGEF (VEGF [3]; 50 μg/ml + 5-FU (10 mM)): 37.8%
Percentage Inhibition VGEF (VEGF [3]; 100 μg/ml + 5-FU (10 mM)): 41.7%
VEGF against chemotherapy induced levels (VEGF [3]): lowering of levels
VEGF against chemotherapy induced levels (VEGF [3]; listed as test items): downregulation
Percentage Inhibition MMP-3 (MMP-3 [4]; 0.1 μg/ml + 5-FU (10 mM)): 22%
Percentage Inhibition MMP-3 (MMP-3 [4]; 10 μg/ml + 5-FU (10 mM)): 29.5%
Percentage Inhibition MMP-3 (MMP-3 [4]; 25 μg/ml + 5-FU (10 mM)): 30.6%
Percentage Inhibition MMP-3 (MMP-3 [4]; 50 μg/ml + 5-FU (10 mM)): 27.3%
Percentage Inhibition MMP-3 (MMP-3 [4]; 100 μg/ml + 5-FU (10 mM)): 8.8%
MMP-3 against chemotherapy induced levels (MMP-3 [4]): lowering of levels
MMP-3 against chemotherapy induced levels (MMP-3 [4]; listed as test items): downregulation
Percentage Inhibition IL-6 (IL-6 [5]; 0.1 μg/ml + 5-FU (10 mM)): 5.4%
Percentage Inhibition IL-6 (IL-6 [5]; 10 μg/ml + 5-FU (10 mM)): 7.8%
Percentage Inhibition IL-6 (IL-6 [5]; 25 μg/ml + 5-FU (10 mM)): 18.2%
Percentage Inhibition IL-6 (IL-6 [5]; 50 μg/ml + 5-FU (10 mM)): 38.6%
Percentage Inhibition IL-6 (IL-6 [5]; 100 μg/ml + 5-FU (10 mM)): 42.2%
IL-6 against chemotherapy induced levels (IL-6 [5]): lowering of levels
IL-6 against chemotherapy induced levels (IL-6 [5]; listed as test items): downregulation
Percentage Inhibition IL-1β (IL-1β [6]; 0.1 μg/ml + 5-FU (10 mM)): 5.5%
Percentage Inhibition IL-1β (IL-1β [6]; 10 μg/ml + 5-FU (10 mM)): 3.6%
Percentage Inhibition IL-1β (IL-1β [6]; 25 μg/ml + 5-FU (10 mM)): 11%
Percentage Inhibition IL-1β (IL-1β [6]; 50 μg/ml + 5-FU (10 mM)): 29.1%
Percentage Inhibition IL-1β (IL-1β [6]; 100 μg/ml + 5-FU (10 mM)): 23.5%
IL-1-β against chemotherapy induced levels (IL-1β [6]): lowering of levels
IL-1-β against chemotherapy induced levels (IL-1β [6]; listed as test items): downregulation
Percentage Inhibition NF-kB (NF-kB; [12]): 11.8%
Percentage Inhibition NF-kB (NF-kB; [13]): 9.9%
Percentage Inhibition NF-kB (NF-kB; 1 μg/ml + Radiation (3.5 kGy)): 9.9%
Percentage Inhibition NF-kB (NF-kB; 10 μg/ml + Radiation (3.5 kGy)): 4%
Percentage Inhibition NF-kB (NF-kB; 25 μg/ml + Radiation (3.5 kGy)): −4%
Percentage Inhibition TNF-α (TNF-α [7]; [12]): 43.2%
Percentage Inhibition TNF-α (TNF-α [7]; [13]): 45.2%
Percentage Inhibition TNF-α (TNF-α [7]; 1 μg/ml + Radiation (3.5 kGy)): 39.6%
Percentage Inhibition TNF-α (TNF-α [7]; 10 μg/ml + Radiation (3.5 kGy)): 47.1%
Percentage Inhibition TNF-α (TNF-α [7]; 25 μg/ml + Radiation (3.5 kGy)): 41%
TNF-α against radiation induced levels (TNF-α [7]; radiation, in words): downregulation
Percentage Inhibition VGEF (VEGF [8]; [12]): 0.9%
Percentage Inhibition VGEF (VEGF [8]; [13]): −8.1%
Percentage Inhibition VGEF (VEGF [8]; 1 μg/ml + Radiation (3.5 kGy)): 8.4%
Percentage Inhibition VGEF (VEGF [8]; 10 μg/ml + Radiation (3.5 kGy)): 23.3%
Percentage Inhibition VGEF (VEGF [8]; 25 μg/ml + Radiation (3.5 kGy)): 29.7%
VEGF against radiation induced levels (VEGF [8]; radiation, in words): downregulation
Percentage Inhibition RAGE (RAGE; [12]): 38.8%
Percentage Inhibition RAGE (RAGE; [13]): 42.6%
Percentage Inhibition RAGE (RAGE; 1 μg/ml + Radiation (3.5 kGy)): 47.6%
Percentage Inhibition RAGE (RAGE; 10 μg/ml + Radiation (3.5 kGy)): 53.5%
Percentage Inhibition RAGE (RAGE; 25 μg/ml + Radiation (3.5 kGy)): 39.1%
RAGE against radiation induced levels (RAGE; radiation, in words): downregulation
Percentage Inhibition MMP-8 (MMP-8; [12]): 1.8%
Percentage Inhibition MMP-8 (MMP-8; [13]): 13.9%
Percentage Inhibition MMP-8 (MMP-8; 1 μg/ml + Radiation (3.5 kGy)): 11%
Percentage Inhibition MMP-8 (MMP-8; 10 μg/ml + Radiation (3.5 kGy)): 8.5%
Percentage Inhibition MMP-8 (MMP-8; 25 μg/ml + Radiation (3.5 kGy)): 7.6%
MMP-8 against radiation induced levels (MMP-8; radiation, in words): downregulation
Percentage Inhibition MMP-3 (MMP-3 [9]; [12]): 42.8%
Percentage Inhibition MMP-3 (MMP-3 [9]; [13]): 51.9%
Percentage Inhibition MMP-3 (MMP-3 [9]; 1 μg/ml + Radiation (3.5 kGy)): 47.4%
Percentage Inhibition MMP-3 (MMP-3 [9]; 10 μg/ml + Radiation (3.5 kGy)): 47.4%
Percentage Inhibition MMP-3 (MMP-3 [9]; 25 μg/ml + Radiation (3.5 kGy)): 28.8%
MMP-3 against radiation induced levels (MMP-3 [9]; radiation, in words): downregulation
Percentage Inhibition IL-6 (IL-6 [10]; [12]): −0.2%
Percentage Inhibition IL-6 (IL-6 [10]; [13]): 3.1%
Percentage Inhibition IL-6 (IL-6 [10]; 1 μg/ml + Radiation (3.5 kGy)): 3.8%
Percentage Inhibition IL-6 (IL-6 [10]; 10 μg/ml + Radiation (3.5 kGy)): 7.7%
Percentage Inhibition IL-6 (IL-6 [10]; 25 μg/ml + Radiation (3.5 kGy)): 5.2%
Percentage Inhibition IL-1β (IL-1β [11]; [12]): −17.3%
Percentage Inhibition IL-1β (IL-1β [11]; [13]): −15.1%
Percentage Inhibition IL-1β (IL-1β [11]; 1 μg/ml + Radiation (3.5 kGy)): −11.5%
Percentage Inhibition IL-1β (IL-1β [11]; 10 μg/ml + Radiation (3.5 kGy)): −44.8%
Percentage Inhibition IL-1β (IL-1β [11]; 25 μg/ml + Radiation (3.5 kGy)): −97.1%
